Test results: paper PMC11117473 (2024)
Ends that are not written are not given here.

Columns and labels:
Assay in all cases: fluorescence polarization
[1] = target: T1, NCOA1 NR2 peptide (Homo sapiens)
T1 chain: Fluorescein-LTARHKILHRLLQEGSPSD

[2] = target: T2, NCOA1 NR2 peptide (Homo sapiens)
T2 chain: Fluorescein-LTARHKILHRLLQEGSPSD

[3] = target: T3, NCOA1 NR2 peptide (Homo sapiens)
T3 chain: Fluorescein-LTARHKILHRLLQEGSPSD

Kd [1]: 500 nM | Kd [2]: 480 nM | Kd [3]: 540 nM
B1: VDR LBD 156-453 (protein)
chain: LSDEQMQIINSLVEAHHKTYDDSYSDFVRFRPPVREGPVTRSASRAASLHSLSDASSDSFNHSPESVDTKLNFSNLLMMYQDSGSPDSSEEDQQSRLSMLPHLADLVSYSIQKVIGFAKMIPGFRDLTAEDQIALLKSSAIEIIMLRSNQSFSLEDMSWSCGGPDFKYCINDVTKAGHTLELLEPLVKFQVGLKKLKLHEEEHVLLMAICLLSPDRPGVQDHVRIEALQDRLCDVLQAYIRIQHPGGRLLYAKMIQKLADLRSLNEEHSKQYRSLSFQPEHSMQLTPLVLEVFGSEVS
